Source: patent US20180066035A1 (published 2018)

Tests used:
[1] = target: human ICAM-1 on cells (HeLa, 8505C, 8505C/LPS, HMEC-1, T cells) (human) (UniProt P05362); assay: cell-based or functional assay
[2] = target: murine ICAM-1 on bEnd.3 cells (mouse) (UniProt P13597); assay: cell-based or functional assay
[3] = target: T1, human ICAM-1 (immobilized, SPR) (human, UniProt P05362 28-480, limits assumed); assay: SPR, I domain over immobilized human ICAM-1
T1 construct: Form immobilized on the SPR chip is not described; also called Intercellular adhesion molecule-1; CD54

murine ICAM-1 (SPR) = murine ICAM-1 (SPR) (murine, UniProt P13597 28-485, limits assumed); assay: SPR, F265S/F292G flowed over murine ICAM-1 (FIG. 1C)
[4] = target: T1, human ICAM-1 (immobilized, SPR); assay: SPR
[5] = target: T1, human ICAM-1 (immobilized, SPR); assay: comparison of the Table 1 affinities
[6] = target: T2, human ICAM-1 on cells (HeLa, 8505C, 8505C/LPS, HMEC-1, T cells) (human, UniProt P05362 28-532); assay: estimated from titrated R6.5 antibody binding to HeLa cells
T2 construct: whole, on cells

[7] = target: T3, recombinant human ICAM-1 fused to human Fcγ (R&D Systems) (human, UniProt P05362 28-480); assay: estimated from flow cytometry MFI of ICAM-1-Fc binding to yeast cells expressing the I domain variant
T3 construct: Bought reagent; also called ICAM-1-Fc; human ICAM-1-Fcγ; not shown: human Fcγ
T3 sequence (P05362 28-480 limits assumed): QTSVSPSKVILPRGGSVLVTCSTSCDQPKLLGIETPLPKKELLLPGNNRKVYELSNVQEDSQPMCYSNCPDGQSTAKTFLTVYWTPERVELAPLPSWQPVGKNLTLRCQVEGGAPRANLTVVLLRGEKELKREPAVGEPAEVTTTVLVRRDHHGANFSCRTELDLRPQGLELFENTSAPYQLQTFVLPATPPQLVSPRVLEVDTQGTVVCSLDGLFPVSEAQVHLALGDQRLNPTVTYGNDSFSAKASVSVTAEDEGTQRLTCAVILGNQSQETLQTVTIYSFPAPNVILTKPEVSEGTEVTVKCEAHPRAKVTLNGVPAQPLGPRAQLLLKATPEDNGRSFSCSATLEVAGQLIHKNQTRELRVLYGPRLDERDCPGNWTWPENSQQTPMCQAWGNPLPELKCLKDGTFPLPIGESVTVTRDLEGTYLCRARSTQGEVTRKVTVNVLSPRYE

Sequence of human ICAM-1 on cells (HeLa, 8505C, 8505C/LPS, HMEC-1, T cells) (human) (P05362 28-532): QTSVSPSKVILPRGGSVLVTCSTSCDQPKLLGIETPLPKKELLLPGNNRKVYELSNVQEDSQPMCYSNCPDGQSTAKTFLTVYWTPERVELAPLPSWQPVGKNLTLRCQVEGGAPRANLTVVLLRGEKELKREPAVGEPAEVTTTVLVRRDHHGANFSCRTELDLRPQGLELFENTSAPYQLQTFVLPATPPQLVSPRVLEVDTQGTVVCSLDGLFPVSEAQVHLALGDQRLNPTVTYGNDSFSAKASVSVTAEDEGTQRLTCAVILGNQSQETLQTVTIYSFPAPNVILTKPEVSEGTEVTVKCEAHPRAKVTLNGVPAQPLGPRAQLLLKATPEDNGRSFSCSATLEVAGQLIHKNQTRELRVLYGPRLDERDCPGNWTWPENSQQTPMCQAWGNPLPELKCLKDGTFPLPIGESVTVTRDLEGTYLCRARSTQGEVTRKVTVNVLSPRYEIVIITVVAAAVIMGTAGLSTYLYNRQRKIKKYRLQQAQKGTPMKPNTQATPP
T1 sequence (P05362 28-480 limits assumed): as the sequence (P05362 28-480 limits assumed) above
Sequence of murine ICAM-1 on bEnd.3 cells (mouse) (P13597 28-537): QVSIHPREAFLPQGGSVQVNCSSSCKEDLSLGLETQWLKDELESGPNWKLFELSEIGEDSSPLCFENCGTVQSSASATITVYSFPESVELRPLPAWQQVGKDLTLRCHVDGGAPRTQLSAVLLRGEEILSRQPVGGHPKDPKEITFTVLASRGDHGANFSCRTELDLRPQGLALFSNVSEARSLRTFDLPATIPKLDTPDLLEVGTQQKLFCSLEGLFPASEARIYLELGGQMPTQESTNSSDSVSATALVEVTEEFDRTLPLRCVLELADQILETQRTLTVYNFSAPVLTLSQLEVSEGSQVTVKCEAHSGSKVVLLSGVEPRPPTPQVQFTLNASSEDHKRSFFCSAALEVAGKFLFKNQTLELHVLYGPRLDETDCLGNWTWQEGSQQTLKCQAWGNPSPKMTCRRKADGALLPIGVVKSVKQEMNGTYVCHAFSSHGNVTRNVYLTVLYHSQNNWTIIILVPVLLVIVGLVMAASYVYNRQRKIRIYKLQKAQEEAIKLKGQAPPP
T2 sequence (P05362 28-532): as the sequence (P05362 28-532) above
Sequence of murine ICAM-1 (SPR) (P13597 28-485 limits assumed): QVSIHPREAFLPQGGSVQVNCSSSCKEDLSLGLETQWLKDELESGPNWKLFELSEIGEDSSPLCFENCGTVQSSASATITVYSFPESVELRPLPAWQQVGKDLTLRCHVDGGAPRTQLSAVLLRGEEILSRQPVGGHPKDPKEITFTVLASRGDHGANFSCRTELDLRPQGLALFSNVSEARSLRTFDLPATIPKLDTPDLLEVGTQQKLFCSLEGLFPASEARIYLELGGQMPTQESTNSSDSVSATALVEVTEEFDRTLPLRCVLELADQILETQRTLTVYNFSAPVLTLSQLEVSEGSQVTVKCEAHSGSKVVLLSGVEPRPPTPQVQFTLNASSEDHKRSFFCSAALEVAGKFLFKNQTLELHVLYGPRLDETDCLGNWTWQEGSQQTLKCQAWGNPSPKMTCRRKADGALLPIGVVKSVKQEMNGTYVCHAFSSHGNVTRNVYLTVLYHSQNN

B1: TM (F265S/F292G/G311C) I domain CAR (receptor, part only; not given: Tag, hinge, transmembrane and signaling domains, not shown: another chain or arm of the molecule; a dimerising Fc or GST; small tags and cut ends)
chain: ECIKGNVDLVFLFDGSMSLQPDEFQKILDFMKDVMKKLSNTSYQFAAVQFSTSYKTEFDFSDYVKWKDPDALLKHVKHMLLLTNTFGAINYVATEVFREELGARPDATKVLIIITDGEATDSGNIDAAKDIIRYIIGIGKHSQTKESQETLHKFASKPASEFVKILDTGEKLKDLFTELQKKIYVIECTS
modifications: Disulfide bond between Cys-125 (chain position 2) and the introduced Cys-311 (chain position 188), per paragraph 45.
[1]
  time (hours) to 50% killing, 8505C target cells: 17.1 h
  time (hours) to 50% killing, 8505C/-ICAM-1 target cells: 32.6 h
  time (hours) to 50% killing, 8505C/LPS target cells: 15.1 h
  time (hours) to 50% killing, HMEC target cells: 13.4 h
  time (hours) to 50% killing, HeLa target cells: 10.8 h
[2]
  time (hours) to 50% killing, bEND3 target cells: 13 h

B2: Wild-type (WT) LFA-1 I domain (receptor)
chain: GNVDLVFLFDGSMSLQPDEFQKILDFMKDVMKKLSNTSYQFAAVQFSTSYKTEFDFSDYVKWKDPDALLKHVKHMLLLTNTFGAINYVATEVFREELGARPDATKVLIIITDGEATDSGNIDAAKDIIRYIIGIGKHFQTKESQETLHKFASKPASEFVKILDTFEKLKDLFTELQKKIYVIEG
notes: I domain of the αL subunit of human LFA-1; also called WT I domain; wild-type human I domain
[3]
  Kd: 1500 µM

B3: F265S LFA-1 I domain (receptor)
chain: GNVDLVFLFDGSMSLQPDEFQKILDFMKDVMKKLSNTSYQFAAVQFSTSYKTEFDFSDYVKWKDPDALLKHVKHMLLLTNTFGAINYVATEVFREELGARPDATKVLIIITDGEATDSGNIDAAKDIIRYIIGIGKHSQTKESQETLHKFASKPASEFVKILDTFEKLKDLFTELQKKIYVIEG
[3]
  Kd: 0.145 µM

B4: F265S/F292G (DM) LFA-1 I domain (receptor)
chain: GNVDLVFLFDGSMSLQPDEFQKILDFMKDVMKKLSNTSYQFAAVQFSTSYKTEFDFSDYVKWKDPDALLKHVKHMLLLTNTFGAINYVATEVFREELGARPDATKVLIIITDGEATDSGNIDAAKDIIRYIIGIGKHSQTKESQETLHKFASKPASEFVKILDTGEKLKDLFTELQKKIYVIEG
[3]
  Kd: 0.006 µM
Murine ICAM-1 (SPR)
  Kd: 0.002 µM
[4]
  fold higher affinity than the wild-type (WT) I domain: ~200000 fold

B5: F292A LFA-1 I domain (receptor)
chain: GNVDLVFLFDGSMSLQPDEFQKILDFMKDVMKKLSNTSYQFAAVQFSTSYKTEFDFSDYVKWKDPDALLKHVKHMLLLTNTFGAINYVATEVFREELGARPDATKVLIIITDGEATDSGNIDAAKDIIRYIIGIGKHFQTKESQETLHKFASKPASEFVKILDTAEKLKDLFTELQKKIYVIEG
[5]
  fold lower affinity than the scFv-based R6.5 CAR: > 1000 fold
[3]
  Kd: 20 µM
[1]
  time (hours) to 50% killing, 8505C target cells: 41.5 h
  time (hours) to 50% killing, 8505C/LPS target cells: 30.8 h
  time (hours) to 50% killing, HeLa target cells: 18.7 h

B6: F292G LFA-1 I domain (receptor)
chain: GNVDLVFLFDGSMSLQPDEFQKILDFMKDVMKKLSNTSYQFAAVQFSTSYKTEFDFSDYVKWKDPDALLKHVKHMLLLTNTFGAINYVATEVFREELGARPDATKVLIIITDGEATDSGNIDAAKDIIRYIIGIGKHFQTKESQETLHKFASKPASEFVKILDTGEKLKDLFTELQKKIYVIEG
[3]
  Kd: 0.119 µM
[1]
  time (hours) to 50% killing, 8505C target cells: 27.3 h
  time (hours) to 50% killing, 8505C/LPS target cells: 24 h
  time (hours) to 50% killing, HMEC target cells: 21.1 h
  time (hours) to 50% killing, HeLa target cells: 14.9 h
[2]
  time (hours) to 50% killing, bEND3 target cells: 16.2 h

B7: F265S/F292G/G311C (TM) LFA-1 I domain (receptor)
chain: ECIKGNVDLVFLFDGSMSLQPDEFQKILDFMKDVMKKLSNTSYQFAAVQFSTSYKTEFDFSDYVKWKDPDALLKHVKHMLLLTNTFGAINYVATEVFREELGARPDATKVLIIITDGEATDSGNIDAAKDIIRYIIGIGKHSQTKESQETLHKFASKPASEFVKILDTGEKLKDLFTELQKKIYVIECTS
modifications: disulfide bond between Cys-311 (G311C) and naturally unpaired Cys-125
notes: also called triple mutant
[3]
  Kd: ~0.001 µM

B8: R6.5 (mouse anti-human ICAM-1 monoclonal antibody from hybridoma; scFv derived from it) (antibody, V domains shown)
VH: QVQLQQSGPELVRPGVSVKISCKGSGYTFIDYAIHWVKESHAKSLEWIGVISAYSGDTNYNQKFKGKATMTVDKSSNTAYLELARLTSEDSAIYYCARGGWLLLSFDYWGQGTTLTVSS
VL: DVVMTQSPLSLPVSLGDQASISCRSSQSLVHSNGNNYLHWYLQKSGQAPKLLIYKVSNRFSGVPDRFSGSGSGTDFTLKISRVEAEDLGVYFCSQSTHVPLTFGGGTKLEIK
[6]
  Kd: 0.01 µM

B9: F292S LFA-1 I domain (receptor)
chain: GNVDLVFLFDGSMSLQPDEFQKILDFMKDVMKKLSNTSYQFAAVQFSTSYKTEFDFSDYVKWKDPDALLKHVKHMLLLTNTFGAINYVATEVFREELGARPDATKVLIIITDGEATDSGNIDAAKDIIRYIIGIGKHFQTKESQETLHKFASKPASEFVKILDTSEKLKDLFTELQKKIYVIEG
[7]
  Kd: 1.24 µM

B10: I288N LFA-1 I domain (receptor)
chain: GNVDLVFLFDGSMSLQPDEFQKILDFMKDVMKKLSNTSYQFAAVQFSTSYKTEFDFSDYVKWKDPDALLKHVKHMLLLTNTFGAINYVATEVFREELGARPDATKVLIIITDGEATDSGNIDAAKDIIRYIIGIGKHFQTKESQETLHKFASKPASEFVKNLDTFEKLKDLFTELQKKIYVIEG
[7]
  Kd: 202 µM

B11: I309T LFA-1 I domain (receptor)
chain: GNVDLVFLFDGSMSLQPDEFQKILDFMKDVMKKLSNTSYQFAAVQFSTSYKTEFDFSDYVKWKDPDALLKHVKHMLLLTNTFGAINYVATEVFREELGARPDATKVLIIITDGEATDSGNIDAAKDIIRYIIGIGKHFQTKESQETLHKFASKPASEFVKILDTFEKLKDLFTELQKKIYVTEG
[7]
  Kd: 127 µM

B12: L289G LFA-1 I domain (receptor)
chain: GNVDLVFLFDGSMSLQPDEFQKILDFMKDVMKKLSNTSYQFAAVQFSTSYKTEFDFSDYVKWKDPDALLKHVKHMLLLTNTFGAINYVATEVFREELGARPDATKVLIIITDGEATDSGNIDAAKDIIRYIIGIGKHFQTKESQETLHKFASKPASEFVKIGDTFEKLKDLFTELQKKIYVIEG
[7]
  Kd: 0.196 µM

B13: L295A LFA-1 I domain (receptor)
chain: GNVDLVFLFDGSMSLQPDEFQKILDFMKDVMKKLSNTSYQFAAVQFSTSYKTEFDFSDYVKWKDPDALLKHVKHMLLLTNTFGAINYVATEVFREELGARPDATKVLIIITDGEATDSGNIDAAKDIIRYIIGIGKHFQTKESQETLHKFASKPASEFVKILDTFEKAKDLFTELQKKIYVIEG
[7]
  Kd: 37 µM
